Reference: the supplement of paper PMC7125110
± gives the standard error. Fewer inactive variants are shown than the library holds.

B1: glmS ribozyme (parent)
chain: AUAAAAGCGCCAGAACUACAGAAAUGUAGUUGACGAGGAGGAGGUUUAUCGAAUUUUCGGCGGAUGCCUCCAAA

Legend:
Settings in all cases: with glucosamine-6-phosphate
glucosamine-6-phosphate [1] = variants of: B1; test: self-cleavage kobs at 40 uM GlcN6P; higher = faster cleavage; RNA array
Procedure, shortened: (§1)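 Glucosamine-6-phosphate (40 μM to 10 mM) in HEPES/KCl/Mg(OAc)2 buffer was flowed over sequenced MiSeq chips, and tiles were imaged over ~14 h. Barcoded ribozyme variants there had been transcribed in situ by E. coli RNA polymerase and were tracked through a hybridised Cy3 probe at 37 °C. One- or two-exponential decay fits to per-tile medians, normalised to baseline and to non-cleaving reference variants, gave kobs. kcat and KM came from weighted Michaelis–Menten fits across concentrations.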

glucosamine-6-phosphate [2] = variants of: B1; test: self-cleavage kobs at 10000 uM GlcN6P; higher = faster cleavage; RNA array
Procedure, shortened: as §1

glucosamine-6-phosphate [3] = variants of: B1; test: self-cleavage kobs at 640 uM GlcN6P; higher = faster cleavage; RNA array
Procedure, shortened: as §1

glucosamine-6-phosphate [4] = variants of: B1; test: self-cleavage kobs at 2500 uM GlcN6P; higher = faster cleavage; RNA array
Procedure, shortened: as §1

glucosamine-6-phosphate [5] = variants of: B1; test: self-cleavage kobs at 160 uM GlcN6P; higher = faster cleavage; RNA array
Procedure, shortened: as §1

Variant: A15C A52U A53G U56C
- self-cleavage kobs at 40 uM GlcN6P (glucosamine-6-phosphate [1]): < 1e-05 s⁻¹
- self-cleavage kobs at 10000 uM GlcN6P (glucosamine-6-phosphate [2]): < 1e-05 s⁻¹

Variant: A14U G41A G44A G60A
- self-cleavage kobs at 40 uM GlcN6P (glucosamine-6-phosphate [1]): < 1e-05 s⁻¹

Variant: C16G G41C C68G
- self-cleavage kobs at 40 uM GlcN6P (glucosamine-6-phosphate [1]): < 1e-05 s⁻¹
- self-cleavage kobs at 10000 uM GlcN6P (glucosamine-6-phosphate [2]): < 1e-05 s⁻¹

Variant: A15G C50G C68U
- self-cleavage kobs at 40 uM GlcN6P (glucosamine-6-phosphate [1]): 0.000179 ± 3.4e-05 s⁻¹
- self-cleavage kobs at 640 uM GlcN6P (glucosamine-6-phosphate [3]): 0.000492 ± 0.00016 s⁻¹
- self-cleavage kobs at 2500 uM GlcN6P (glucosamine-6-phosphate [4]): 0.000371 ± 0.00011 s⁻¹
- self-cleavage kobs at 10000 uM GlcN6P (glucosamine-6-phosphate [2]): 0.000154 ± 3.1e-05 s⁻¹

Variant: A14U G37U C70A
- self-cleavage kobs at 40 uM GlcN6P (glucosamine-6-phosphate [1]): < 1e-05 s⁻¹

Variant: C16G U30G C61G
- self-cleavage kobs at 40 uM GlcN6P (glucosamine-6-phosphate [1]): < 1e-05 s⁻¹
- self-cleavage kobs at 10000 uM GlcN6P (glucosamine-6-phosphate [2]): < 1e-05 s⁻¹

Variant: A15G C50U G60A A64C
- self-cleavage kobs at 40 uM GlcN6P (glucosamine-6-phosphate [1]): < 1e-05 s⁻¹

Variant: A14U G37U
- self-cleavage kobs at 40 uM GlcN6P (glucosamine-6-phosphate [1]): < 1e-05 s⁻¹
- self-cleavage kobs at 640 uM GlcN6P (glucosamine-6-phosphate [3]): < 1e-05 s⁻¹
- self-cleavage kobs at 10000 uM GlcN6P (glucosamine-6-phosphate [2]): < 1e-05 s⁻¹

Variant: A15G U31C
- self-cleavage kobs at 40 uM GlcN6P (glucosamine-6-phosphate [1]): 0.000207 ± 3.4e-05 s⁻¹
- self-cleavage kobs at 160 uM GlcN6P (glucosamine-6-phosphate [5]): 0.00035 ± 8.7e-05 s⁻¹
- self-cleavage kobs at 640 uM GlcN6P (glucosamine-6-phosphate [3]): 0.00208 ± 0.00026 s⁻¹
- self-cleavage kobs at 2500 uM GlcN6P (glucosamine-6-phosphate [4]): 0.00542 ± 0.0013 s⁻¹
- self-cleavage kobs at 10000 uM GlcN6P (glucosamine-6-phosphate [2]): 0.0123 ± 0.0028 s⁻¹

Variant: A15G A39C C61U G63C C68G
- self-cleavage kobs at 40 uM GlcN6P (glucosamine-6-phosphate [1]): < 1e-05 s⁻¹
- self-cleavage kobs at 640 uM GlcN6P (glucosamine-6-phosphate [3]): < 1e-05 s⁻¹

Variant: A15C U55A C61G
- self-cleavage kobs at 40 uM GlcN6P (glucosamine-6-phosphate [1]): < 1e-05 s⁻¹
- self-cleavage kobs at 10000 uM GlcN6P (glucosamine-6-phosphate [2]): < 1e-05 s⁻¹

Variant: A15G U54A G62C U65A
- self-cleavage kobs at 40 uM GlcN6P (glucosamine-6-phosphate [1]): < 1e-05 s⁻¹
- self-cleavage kobs at 640 uM GlcN6P (glucosamine-6-phosphate [3]): < 1e-05 s⁻¹
- self-cleavage kobs at 2500 uM GlcN6P (glucosamine-6-phosphate [4]): < 1e-05 s⁻¹
- self-cleavage kobs at 10000 uM GlcN6P (glucosamine-6-phosphate [2]): < 1e-05 s⁻¹

Variant: A15U U31A G32A A36U U57A C58G C71U
- self-cleavage kobs at 40 uM GlcN6P (glucosamine-6-phosphate [1]): 5.17e-05 ± 2.1e-05 s⁻¹
- self-cleavage kobs at 10000 uM GlcN6P (glucosamine-6-phosphate [2]): 0.000109 ± 2.6e-05 s⁻¹

Variant: C16G G37A C68U
- self-cleavage kobs at 40 uM GlcN6P (glucosamine-6-phosphate [1]): < 1e-05 s⁻¹

Variant: A15G G41A
- self-cleavage kobs at 40 uM GlcN6P (glucosamine-6-phosphate [1]): 0.000137 ± 1.9e-05 s⁻¹
- self-cleavage kobs at 160 uM GlcN6P (glucosamine-6-phosphate [5]): 0.000239 ± 4.1e-05 s⁻¹
- self-cleavage kobs at 640 uM GlcN6P (glucosamine-6-phosphate [3]): 0.000767 ± 0.00025 s⁻¹
- self-cleavage kobs at 2500 uM GlcN6P (glucosamine-6-phosphate [4]): 0.0013 ± 0.00038 s⁻¹
- self-cleavage kobs at 10000 uM GlcN6P (glucosamine-6-phosphate [2]): 0.00309 ± 0.00072 s⁻¹

Variant: A15G A36G G44U
- self-cleavage kobs at 40 uM GlcN6P (glucosamine-6-phosphate [1]): < 1e-05 s⁻¹
- self-cleavage kobs at 2500 uM GlcN6P (glucosamine-6-phosphate [4]): < 1e-05 s⁻¹

Variant: C16G G35A
- self-cleavage kobs at 40 uM GlcN6P (glucosamine-6-phosphate [1]): < 1e-05 s⁻¹
- self-cleavage kobs at 160 uM GlcN6P (glucosamine-6-phosphate [5]): < 1e-05 s⁻¹
- self-cleavage kobs at 640 uM GlcN6P (glucosamine-6-phosphate [3]): < 1e-05 s⁻¹
- self-cleavage kobs at 10000 uM GlcN6P (glucosamine-6-phosphate [2]): < 1e-05 s⁻¹

Variant: A15U C16A G40A C68U U69A
- self-cleavage kobs at 40 uM GlcN6P (glucosamine-6-phosphate [1]): < 1e-05 s⁻¹
- self-cleavage kobs at 10000 uM GlcN6P (glucosamine-6-phosphate [2]): < 1e-05 s⁻¹

Variant: A15C U31C G51C U56G C70G
- self-cleavage kobs at 40 uM GlcN6P (glucosamine-6-phosphate [1]): < 1e-05 s⁻¹
- self-cleavage kobs at 10000 uM GlcN6P (glucosamine-6-phosphate [2]): < 1e-05 s⁻¹

Variant: A15G U30G C70U
- self-cleavage kobs at 40 uM GlcN6P (glucosamine-6-phosphate [1]): 0.000184 ± 5.6e-05 s⁻¹
- self-cleavage kobs at 640 uM GlcN6P (glucosamine-6-phosphate [3]): 0.00102 ± 0.00026 s⁻¹
- self-cleavage kobs at 10000 uM GlcN6P (glucosamine-6-phosphate [2]): 0.0318 ± 0.013 s⁻¹

Variant: A15C G40A U49G C71U
- self-cleavage kobs at 40 uM GlcN6P (glucosamine-6-phosphate [1]): < 1e-05 s⁻¹
- self-cleavage kobs at 10000 uM GlcN6P (glucosamine-6-phosphate [2]): 4.71e-05 ± 1.3e-05 s⁻¹

Variant: A15C G35U C50U
- self-cleavage kobs at 40 uM GlcN6P (glucosamine-6-phosphate [1]): < 1e-05 s⁻¹
- self-cleavage kobs at 2500 uM GlcN6P (glucosamine-6-phosphate [4]): < 1e-05 s⁻¹
- self-cleavage kobs at 10000 uM GlcN6P (glucosamine-6-phosphate [2]): < 1e-05 s⁻¹

Variant: A15U U56A
- self-cleavage kobs at 40 uM GlcN6P (glucosamine-6-phosphate [1]): 0.000156 ± 3.4e-05 s⁻¹
- self-cleavage kobs at 160 uM GlcN6P (glucosamine-6-phosphate [5]): 0.000209 ± 4.3e-05 s⁻¹
- self-cleavage kobs at 640 uM GlcN6P (glucosamine-6-phosphate [3]): 0.00152 ± 0.00021 s⁻¹
- self-cleavage kobs at 2500 uM GlcN6P (glucosamine-6-phosphate [4]): 0.00224 ± 0.00059 s⁻¹
- self-cleavage kobs at 10000 uM GlcN6P (glucosamine-6-phosphate [2]): 0.00509 ± 0.00093 s⁻¹

Variant: A15U A42C C68G
- self-cleavage kobs at 40 uM GlcN6P (glucosamine-6-phosphate [1]): < 1e-05 s⁻¹

Variant: A14U G40A U56G
- self-cleavage kobs at 40 uM GlcN6P (glucosamine-6-phosphate [1]): 0.000117 ± 2.9e-05 s⁻¹
- self-cleavage kobs at 10000 uM GlcN6P (glucosamine-6-phosphate [2]): 0.00163 ± 0.00045 s⁻¹
